Reference: paper PMC4705923, “Structural Insights into the MMACHC-MMADHC Protein Complex Involved in Vitamin B12 Trafficking*” (The Journal of Biological Chemistry, 2015)
Positions count from the first letter of the chain named. In names and notes the source's numbering stands. Each block holds one binder with its values, some of them ahead of it.

Legend:
[1] = target: T1, full-length human MMACHC (HsMMACHCFL) (human, UniProt Q9Y4U1 1-282); experiment: native MS; about 4 mg/ml MMADHC and MMACHC incubated with 0.5 mM MeCbl and 2 mM reduced GSH, desalted into 50 mM ammonium acetate pH 6.5; Q-TOF, electrospray, positive ion mode; conditions: both partners purified
T1 construct: human MMACHC, full length (C-terminal Pro-rich region is aa 236-282); source: E. coli BL21(DE3)R3, purified (Ni-Sepharose, Superdex 200)
T1 sequence (looked up): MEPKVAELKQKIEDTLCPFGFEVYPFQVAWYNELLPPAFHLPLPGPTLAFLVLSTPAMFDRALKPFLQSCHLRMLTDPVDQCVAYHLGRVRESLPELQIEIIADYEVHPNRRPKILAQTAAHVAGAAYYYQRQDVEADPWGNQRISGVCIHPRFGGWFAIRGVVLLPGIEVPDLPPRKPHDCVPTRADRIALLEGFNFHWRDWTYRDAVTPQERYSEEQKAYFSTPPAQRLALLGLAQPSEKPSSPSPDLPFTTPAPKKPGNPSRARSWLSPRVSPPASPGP

[2] = target: T1, full-length human MMACHC (HsMMACHCFL); experiment: native gel or EMSA; blue native-PAGE; 25 μM of each protein with 50 μM MeCbl and 8 mM GSH, preincubated in the dark at room temperature for 1 h; complex judged by an additional band; conditions: both partners purified
untagged HsMMACHCΔC = target: T2, untagged HsMMACHCΔC (human, UniProt Q9Y4U1 1-235); experiment: SAXS; complex reconstituted from untagged proteins with MeCbl and GSH, purified by size-exclusion chromatography, 17 mg/ml; in-line HPLC column or batch mode; Diamond B21; conditions: both partners purified
T2 construct: human MMACHC lacking the C-terminal Pro-rich region (aa 236-282); Form used for SAXS; not shown: His6, N-terminal, cleaved
T2 sequence (looked up): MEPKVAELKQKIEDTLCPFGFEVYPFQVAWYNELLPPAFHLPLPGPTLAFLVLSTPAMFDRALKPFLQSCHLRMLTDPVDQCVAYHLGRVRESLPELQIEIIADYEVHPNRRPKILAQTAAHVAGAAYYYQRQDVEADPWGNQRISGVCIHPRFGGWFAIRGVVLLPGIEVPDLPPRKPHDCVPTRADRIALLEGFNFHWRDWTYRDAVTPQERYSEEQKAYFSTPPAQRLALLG

HsMMACHCΔC = target: T3, HsMMACHCΔC (human, UniProt Q9Y4U1 1-235); experiment: SEC; analytical size-exclusion chromatography of the two proteins with MeCbl and GSH; molecular weights from a calibration curve; conditions: both partners purified
T3 construct: human MMACHC lacking the C-terminal Pro-rich region (aa 236-282); Form used in BN-PAGE and size-exclusion chromatography; source: E. coli BL21(DE3)R3, purified (Ni-Sepharose, Superdex 200)
T3 sequence (looked up): T2 sequence (looked up)

[3] = target: T4, full-length human MMACHC (HsMMACHCFL) (human), Q9Y4U1; experiment: native gel or EMSA; blue native-PAGE of single proteins, 25 μM; MMACHC alone and with MeCbl and GSH; MMADHC truncations alone; conditions: remark: other sources report otherwise
T4 chain: T1 sequence (looked up)

- binding result [2]: binds
B4: HsMMADHCΔ123-D226A (domain or fragment, human, UniProt Q9H3L0 124-296, looked up)
chain: QGNDAPVEQEINSAETYFESARVECAIQTCPELLRKDFESLFPEVANGKLMILTVTQKTKNDMTVWSEEVEIEREVLLEKFINGAKEICYALRAEGYWADFIAPSSGLAFFGPYTNNTLFETDERYRHLGFSVDDLGCCKVIRHSLWGTHVVVGSIFTNATPDSHIMKKLSGN
notes: human MMADHC Δ123 construct with p.D226A (stretch 2); also called p.D226A; source: E. coli BL21(DE3)R3, purified (Ni-Sepharose, Superdex 200)

- stoichiometry N (untagged HsMMACHCΔC): 1
B5: untagged MmMMADHCΔ128 (domain or fragment, Mus musculus, UniProt Q99LS1 129-296, looked up)
chain: PVEQEINSAETYFESAKVECAIQTCPELLRRDFESLFPEVANSKLMILTVTQKTENDMTVWSEEVEVEREVLLEKFISGAKEICYALRAEGYWADFIDPSSGVAFFGPYTNNTLFETDERYRHLGFSVDDLGCCKVIRHSLWGTHVVVGSIFTNATADSSIMRKLSGN
notes: mouse MMADHC aa 129-296; Form used for SAXS; not shown: His6, N-terminal, cleaved

- stoichiometry N [3]: 2
B7: full-length human MMACHC (HsMMACHCFL), Q9Y4U1 1-282 (natural protein)
chain: T1 sequence (looked up)

- binding result [2]: binds
B8: HsMMADHCΔ61 (domain or fragment, human, UniProt Q9H3L0 62-296, looked up)
chain: MGPFGPQDQRFQLPGNIGFDCHLNGTASQKKSLVHKTLPDVLAEPLSSERHEFVMAQYVNEFQGNDAPVEQEINSAETYFESARVECAIQTCPELLRKDFESLFPEVANGKLMILTVTQKTKNDMTVWSEEVEIEREVLLEKFINGAKEICYALRAEGYWADFIDPSSGLAFFGPYTNNTLFETDERYRHLGFSVDDLGCCKVIRHSLWGTHVVVGSIFTNATPDSHIMKKLSGN
notes: human MMADHC (296 aa) with N-terminal truncation Δ61; by analogy with MmMMADHCΔ128 = aa 129-296; source: E. coli BL21(DE3)R3, purified (Ni-Sepharose, Superdex 200)

- binding result [2]: binds
B9: HsMMADHCΔ153 (domain or fragment, human, UniProt Q9H3L0 154-296, looked up)
chain: PELLRKDFESLFPEVANGKLMILTVTQKTKNDMTVWSEEVEIEREVLLEKFINGAKEICYALRAEGYWADFIDPSSGLAFFGPYTNNTLFETDERYRHLGFSVDDLGCCKVIRHSLWGTHVVVGSIFTNATPDSHIMKKLSGN
notes: source: E. coli BL21(DE3)R3, purified (Ni-Sepharose, Superdex 200)

The next lines start with the binder.

B1: HsMMADHCΔ123 (domain or fragment, human, UniProt Q9H3L0 124-296, looked up)
chain: B4 chain with A103D
notes: human MMADHC (296 aa) with N-terminal truncation Δ123; source: E. coli BL21(DE3)R3, purified (Ni-Sepharose, Superdex 200)
- stoichiometry N [1]: 1

B2: HsMMADHCΔ123-L259P (domain or fragment, human, UniProt Q9H3L0 124-296, looked up)
chain: B4 chain with A103D, L136P
notes: human MMADHC Δ123 construct with p.L259P (stretch 3); also called p.L259P; source: E. coli BL21(DE3)R3, purified (Ni-Sepharose, Superdex 200)
- binding result [2]: binds

B3: HsMMADHCΔ123-M186A (domain or fragment, human, UniProt Q9H3L0 124-296, looked up)
chain: B4 chain with M63A, A103D
notes: human MMADHC Δ123 construct with p.M186A (stretch 1); also called p.M186A; source: E. coli BL21(DE3)R3, purified (Ni-Sepharose, Superdex 200)
- binding result [2]: binds

B6: MmMMADHCΔ128 (M. musculus MMADHC aa 129-296) (domain or fragment, Mus musculus, UniProt Q99LS1 129-296, looked up)
chain: B5 chain
notes: Form used in BN-PAGE and size-exclusion chromatography; source: E. coli BL21(DE3)R3, purified (Ni-Sepharose, Superdex 200)
- stoichiometry N (HsMMACHCΔC): 1
